Results: patent publication EP4289863A9

Tests used:
human IL-36R (human) [1] = molecular target: T1, human IL-36R (human) (UniProt Q9HB29); assay: cell-based or functional assay
T1 sequence (looked up): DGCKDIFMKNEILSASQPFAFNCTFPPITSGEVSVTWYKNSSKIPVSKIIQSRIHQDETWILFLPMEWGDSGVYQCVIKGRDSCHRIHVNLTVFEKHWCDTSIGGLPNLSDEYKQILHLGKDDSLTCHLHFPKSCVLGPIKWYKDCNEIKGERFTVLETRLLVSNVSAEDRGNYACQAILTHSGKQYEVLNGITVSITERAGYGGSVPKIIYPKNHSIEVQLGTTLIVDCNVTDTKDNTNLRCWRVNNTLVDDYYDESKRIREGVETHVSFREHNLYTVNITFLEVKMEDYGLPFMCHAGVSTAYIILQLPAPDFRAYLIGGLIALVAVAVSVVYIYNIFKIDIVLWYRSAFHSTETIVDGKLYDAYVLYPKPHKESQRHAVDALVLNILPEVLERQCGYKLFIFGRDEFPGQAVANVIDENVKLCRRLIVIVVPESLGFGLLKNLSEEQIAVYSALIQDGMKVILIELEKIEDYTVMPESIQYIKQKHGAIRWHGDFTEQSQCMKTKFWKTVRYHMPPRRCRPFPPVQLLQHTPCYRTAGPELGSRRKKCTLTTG

human IL1R1 (human) = human IL1R1 (human) (UniProt P14778); assay: flow cytometry on cells, hybridoma supernatant
human IL-36R (human) [2] = molecular target: T1, human IL-36R (human); assay: flow cytometry on cells, hybridoma supernatant
monkey IL-36R (monkey) = assay: flow cytometry on cells, hybridoma supernatant
[3] = molecular target: T2, human IL-36R (antigen of the OD450 binding screen of Table 1) (human) (UniProt Q9HB29); assay: OD450 binding screen of hybridoma supernatant, antigen not named
T2 sequence (looked up): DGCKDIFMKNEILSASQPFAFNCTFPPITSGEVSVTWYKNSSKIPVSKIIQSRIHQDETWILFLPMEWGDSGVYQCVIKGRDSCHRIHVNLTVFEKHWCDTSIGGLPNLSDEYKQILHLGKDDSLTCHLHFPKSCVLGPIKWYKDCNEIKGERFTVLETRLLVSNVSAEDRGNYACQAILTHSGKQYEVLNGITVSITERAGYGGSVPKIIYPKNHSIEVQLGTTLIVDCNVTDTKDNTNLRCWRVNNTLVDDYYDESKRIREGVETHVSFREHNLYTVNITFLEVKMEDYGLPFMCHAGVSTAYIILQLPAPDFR

Sequence of human IL1R1 (human) (P14778 18-569): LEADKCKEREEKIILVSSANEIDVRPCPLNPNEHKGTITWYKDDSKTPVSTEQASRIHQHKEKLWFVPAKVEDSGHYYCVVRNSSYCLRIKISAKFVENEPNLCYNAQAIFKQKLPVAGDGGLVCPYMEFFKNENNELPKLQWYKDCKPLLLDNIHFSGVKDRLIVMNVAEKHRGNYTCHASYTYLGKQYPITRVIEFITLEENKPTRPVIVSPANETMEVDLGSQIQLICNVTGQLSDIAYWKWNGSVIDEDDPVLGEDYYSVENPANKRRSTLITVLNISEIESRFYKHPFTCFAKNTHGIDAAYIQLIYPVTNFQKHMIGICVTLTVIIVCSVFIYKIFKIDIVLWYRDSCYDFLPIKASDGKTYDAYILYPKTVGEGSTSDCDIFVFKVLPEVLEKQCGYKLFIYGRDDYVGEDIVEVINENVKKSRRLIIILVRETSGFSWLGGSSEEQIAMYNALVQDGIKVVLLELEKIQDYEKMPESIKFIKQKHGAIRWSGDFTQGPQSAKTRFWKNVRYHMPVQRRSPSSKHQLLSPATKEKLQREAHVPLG

IL-6 ratio in blockage of human IL36β functional activity (hybridoma supernatant/positive control) (human IL-36R (human) [1]): 0.07% | IL-8 ratio in blockage of human IL36α functional activity (hybridoma supernatant/positive control) (human IL-36R (human) [1]): -4.02% | IL-8 ratio in blockage of human IL36β functional activity (hybridoma supernatant/positive control) (human IL-36R (human) [1]): -4.62% | IL-8 ratio in blockage of human IL36γ functional activity (hybridoma supernatant/positive control) (human IL-36R (human) [1]): -3.86% | MFI ratio (hybridoma supernatant/negative control) (human IL1R1 (human)): 118% | MFI ratio (hybridoma supernatant/positive control) (human IL-36R (human) [2]): 81.6% | MFI ratio (hybridoma supernatant/positive control) (monkey IL-36R (monkey)): 105% | Binding activity OD450 value [3]: 2.16 OD450
B1: 111(1)-E5 (antibody, part only; not given: light chain, V domains shown, part only)
VH: QVQLQQTGSVLVRPGTSVKLSCKASGYTFTSSWMHWAKQRPGQGLEWIGEIHPNSAKTNYNEKFKGKATLTVDTFSSTAYVDLSSLASEDSAVYYCARVDYGKPWFAYWGQGTLVTVSA
